Experimental findings from paper PMC3001195 (Structure (London, England : 1993), 2010) are described below.

Data set [1] concerns the molecule itself. Briefly: negative-stain electron microscopy.
The data set “SEC” concerns the molecule itself. Briefly: SEC. On the technique in general: In gel filtration, larger molecules generally elute earlier.
The data set “crystal structure” concerns the molecule itself. Briefly: crystal structure.

Numbering of substitutions follows the chain as printed. Numbers in names are those of the source.

B1: NtrC1^C,WT, central (AAA+ ATPase) domain of NtrC1 of Aquifex aeolicus (domain or fragment)
chain: RKENELLRREKDLKEEEYVFESPKMKEILEKIKKISCAECPVLITGESGVGKEVVARLIHKLSDRSKEPFVALNVASIPRDIFEAELFGYEKGAFTGAVSSKEGFFELADGGTLFLDEIGELSLEAQAKLLRVIESGKFYRLGGRKEIEVNVRILAATNRNIKELVKEGKFREDLYYRLGVIEIEIPPLRERKEDIIPLANHFLKKFSRKYAKEVEGFTKSAQELLLSYPWYGNVRELKNVIERAVLFSEGKFIDRGELSCLVNSK
B1: in data set [1], the “stoichiometry N” value turned out to be 7.

B2: NtrC1^C,R293A (domain or fragment, Aquifex aeolicus)
chain: B1 chain with R172A
With B2, the binding result in “SEC” is listed as “binds”.

B3: NtrC1^C,E239A, Walker-B variant of the central domain of NtrC1 of Aquifex aeolicus (domain or fragment)
chain: B1 chain with E118A
With B3, the “stoichiometry N” value in “crystal structure” is 7.

One may read the stoichiometry N as a count of units in the complex or per binding partner.
